# Assay results: the RNAGym collection of RNA variant scans (doi:10.1073/pnas.2313332121)
# Fewer inactive variants are shown than the library holds.
# B1: TPR 5TU (parent)
# chain: GGAUCUUCUCGAUCUAACAAAAAAGACAAAUCUGCCACAAAGCUUGAGAGCAUCUUCGGAUGCAGAGGCGGCAGCCUUCGGUGGCGCGAUAGCGCCAACGUUCUCAACUAUGACACGCAAAACGCGUGCUCCGUUGAAUGGAGUUUAUCAUG
# Variants of: B1
# Experiment: polymerase ribozyme fitness, log enrichment relative to wild type (log ratio); higher = more active; in vitro selection for triplet polymerase activity
# Summary of the method: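 Each subunit of a heterodimeric triplet polymerase ribozyme was mutagenized into a library by PCR, transcribed, and subjected to one round of in vitro selection, run in triplicate. Libraries were annealed with a biotinylated primer, the partner subunit and triplets, incubated frozen at −7 °C, and extended constructs were gel-excised, captured on streptavidin beads and recovered by RT-PCR. Input and output libraries were sequenced on Illumina, keeping genotypes with ≥10 input reads and ≥1 read per output. Fitness is log base 2 of genotype enrichment divided by wild-type enrichment, from inverse-variance-weighted replicate averages.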
row,Variant,polymerase ribozyme fitness (log ratio)
1,U13A C103A,-2.51
2,C14G A17C A22U U44A G83C C118A U134C,≤ -4.2
3,U13C U44A C87A G126U,≤ -4.2
4,U13G C18G A22G C54A G100C C116G A120U A147C,≤ -4.2
5,U13G A66C G80U G83C U101C U139C,≤ -4.2
6,C14G A19C A22C U61A A91U C105G C108G C114U A120G,≤ -4.2
7,A12U C38U C129G,≤ -4.2
8,A12U A22G C35U G58A A91C A98G C116G,-4.07
9,A12G U44A A52G C85A C118U,≤ -4.2
10,U13C C14G G88A,-4
11,C14A A21C A64G C75U C76G C85U C105U A120U,≤ -4.2
12,C14G C57G C87G,≤ -4.2
13,U13C A20U G48C C96G,-2.62
14,C14G C75G U77A C87A A137U G143U,≤ -4.2
15,C14A G141C,-1.87
16,C14A G141U,-0.0158
17,C14G A52C C69U U77G G92A,≤ -4.2
18,C14G A26G C27A U44A U45C C72A U151G,≤ -4.2
19,U13A C54A A91C,≤ -4.2
20,A12U C36U,-2.21
21,A12G C27G U55A A110G G143A U145G U148G,≤ -4.2
22,C14G C96G,-2.81
23,U13G C32G A41C G141U,≤ -4.2
24,C14G C87U,-2.29

row,Variant,polymerase ribozyme fitness (log ratio)
1,C14G C87G,≤ -4.2
2,A12U G25U A52C U56A G67A A91G C103G,≤ -4.2
3,A12U G84U G141C,-2.48
4,U13A C93U,-0.77
5,A12U A23G C87U A150C,≤ -4.2
6,U13C A121U A142C,-2.44
7,U13C C96A C99U,-1.75
8,U13A C85U,-1.16
9,U13G C14G A30C G80A A137U,≤ -4.2
10,U13A A47U G86U C132U G140A,-3.17
11,C14A C43A C51U C54G C93A U145C A150C,≤ -4.2
12,A12C U53A U56A,-2.64
13,C14A U55A G68A A107U,≤ -4.2
14,U13G A23U C35A C93U C99U U127G,≤ -4.2
15,A12U A17U C18U G46U C51U A52U C75A G84C G100U C105U C118G A120U U134A A137G,≤ -4.2
16,A12U G46U G71U A142G,≤ -4.2
17,A12G G143U,-2.62
18,A12U A21C G80C G81A C93G G140U,≤ -4.2
19,A12U A120C,-0.776
20,A12G A19G A41C C95U G126A,-1.94
21,A12U U53A,-1.75
22,C14A A17C U31A C57U C96G,-3.28
23,C14G A47C A52G A115C A119G,≤ -4.2
24,U13G G84U U135A G136A,-2.14

row,Variant,polymerase ribozyme fitness (log ratio)
1,A12G C75G A119C,-3.34
2,U13G C54U G84U,-2.19
3,U13G A52G G59C C95A C118U,-2.5
4,U13A A21U U55C G62C U82A G100C C105G G112U C131U,≤ -4.2
5,U13G G58C A122C,-1.1
6,U13G A40C A73G C85U,-2.84
7,C14A A26G G67A A73U G86C A121U C123G A138C U146A,≤ -4.2
8,U13C G88U,-3.96
9,U13G C18G C27U A40U A64U,≤ -4.2
10,U13C A52G G84A,-1.1
11,A12U G81A C85A C99U,-1.62
12,A12G A39C,-1.68
13,A12G A39G,-1.53
14,U13G A23U A37C G83A C96U,≤ -4.2
15,C14G C54A C85G U127A,≤ -4.2
16,A12G A20G A26U A41C C54U U77C U102C U146G,≤ -4.2
17,U13A A113U,-2.5
18,C14A A39U A52U C87A C95U C96U G100U C125A,≤ -4.2
19,C14A U61A,-3.22
20,A12U U13A A91G C93A U102A,≤ -4.2
21,A12U C18A C51A U55G C87U G94A G143U,≤ -4.2
22,U13G A23U A26C C36A C57A G86U C95U A121C,≤ -4.2
23,C14A A16U G86A C87G,-3.84
24,U13C C27A C43A G86U,≤ -4.2

row,Variant,polymerase ribozyme fitness (log ratio)
1,C14A A41C C51U A64U C76A A89G C95A G128A A150U,≤ -4.2
2,A12C G59A C75U C114U A150C,≤ -4.2
3,C14G A30C C35A G48A C87G U102A,≤ -4.2
4,A12G A16G U31A C125A U145C,-0.993
5,A12U C85U C99G,-1.04
6,A12C G94A G152C,-3.98
7,C14A A17U A115G,-3.2
8,A12G A20U A41C C57A A66U C69G A91U C129U,≤ -4.2
9,U13C A40G C43U C87U G128C U139A,≤ -4.2
10,C14A A21G U53A C85U,-3.58
11,A12U G117C U134C,-0.516
12,U13A C85U G136U,-3.3
13,A12U A41C U55G A66G G88U G94U U134A G136C U151A,≤ -4.2
14,U13A A20G C63G A91U G136C,≤ -4.2
15,C14G G50U U56G G59C C108U,≤ -4.2
16,A12U A24U G81U G84A,0.337
17,A12U A41C,-0.744
18,U13G C51U U56A G86U A115U,≤ -4.2
19,C14A C72U G81U C95U,-2.42
20,A12U C96A,-0.787
21,A12U C57U C85G A115C G133U U139C,≤ -4.2
22,C14G G50A,-3.35
23,U13A C18U C51U G86A,-2.27
24,U13G C14U A60C G88U A122U U134A,≤ -4.2

row,Variant,polymerase ribozyme fitness (log ratio)
1,C14A A23U U31C U44A A73G G83C A110G,≤ -4.2
2,A12U C14A G58C C85A,-3.13
3,A12G C57A G58A G81A C85U A91G A119G,-3.03
4,A12G C95U C105G A106U,-4.1
5,C14G G48U C76U U77G A91C C99G C105G A122G C123G C129G U135G,≤ -4.2
6,U13G G42A A49G U56A C57A G80A,≤ -4.2
7,U13G A106C,-1.83
8,C14G C54A C57A G62A U78A C85U G88A A115U,≤ -4.2
9,U13G C14G C18U A22C C57U G59A C75A C93A G143U U146A G152U,≤ -4.2
10,A12G A20U C103A C116A A121U C129A,≤ -4.2
11,U13A A49C G50C C51U G62C C76A G81A C85U G112A G124U,≤ -4.2
12,A12G A22C U101G U127C,-1.93
13,A12G C14U C79G C132A A142U,≤ -4.2
14,C14A A29U C51A C96G A115C C118A G141A,≤ -4.2
15,A12G A52C U55A C118G A120U,-1.84
16,A12G C18G A21U G68C G83A A97U C125U G140U G143U,≤ -4.2
17,A12G C72G G74U G83U U146G,≤ -4.2
18,A12U G84U G100U,≤ -4.2
19,C14A G25U U82G G94U,≤ -4.2
20,C14A U55G U56A G92U A150G,-4.11
21,C14A A115G,-2.5
22,A12U G84A G88C A119C G140A,≤ -4.2
23,A12C U56A G59C C96A U101C,-0.609
24,U13G A28U A37C A41G C99U C129A U134C A150C,≤ -4.2

row,Variant,polymerase ribozyme fitness (log ratio)
1,C14A G58C C93U,-2.75
2,U13G A17U G88A C96G,≤ -4.2
3,A12U A22G U45A A49U A115G,≤ -4.2
4,C14G A30U C36A U55A A73C C85U A119G,≤ -4.2
5,C14G C96U U134C,-2.72
6,U13G A20C C27U U61A C99A,≤ -4.2
7,C14A C18G A41C G42A G59C G68A C95U,≤ -4.2
8,A12G A23G U31A C35U U56A,-3.98
9,A12C U53A C87U,-2
10,U13A A22C G50A G84A A121U,-2.93
11,U13G C32A C93A U127G,≤ -4.2
12,U13G A16U U33G G50C G81C G143A,≤ -4.2
13,U13C A22G U61A G83A,-3.83
14,C14G A28U A29C C32G U44G C63U G83A G86C C105U C108U G143U,≤ -4.2
15,A12G U56A,-0.197
16,U13A A24U C96G,-1.33
17,A12G U33G C36A G86U A110C C118U C123U,≤ -4.2
18,C14G C32A U61G A120C,≤ -4.2
19,U13C A22C U53A C116A,0.349
20,U13A U61A,-1.8
21,U13G A23C C32U G59U C85G C105G A106U C116G U134A,≤ -4.2
22,A12U C76G C99U C132G,≤ -4.2
23,U13G A60U G83C C108U,≤ -4.2
24,A12G C54U C57A C75U,-0.0208

row,Variant,polymerase ribozyme fitness (log ratio)
1,A12G U15G A26G C93A A115G,≤ -4.2
2,A12U G58C C95A,-1.44
3,A12G U55A G84A G117U,-0.697
4,C14G G34A G128A G141C,-3.91
5,U13G A49U C57U C87G C118U U139C U151A,≤ -4.2
6,C14G C32G C76A U139A,≤ -4.2
7,C14A G50A C87A A106U C108G A150C,≤ -4.2
8,A12U A29C C87A G94U,≤ -4.2
9,U13A G58U C96A A120U U145C,-1.29
10,C14G A17C,-2.89
11,U13C G59U C93G A138G,≤ -4.2
12,U13C G25A A29C C36G C118A,-4.18
13,A12G A19C A29U C129G,≤ -4.2
14,A12G A23U U56A C93G,≤ -4.2
15,C14G A26G U44A C99G C103U,≤ -4.2
16,C14A A20U A26C G84A G141A,≤ -4.2
17,C14G A26U A28G C35A U56C C57U U90G,≤ -4.2
18,C14G A97C A110U A120G U134A,≤ -4.2
19,A12U G34U G50A A52G G67C C85U C96U G141A U148G,≤ -4.2
20,A12U A39U U55A G67U G86U C103U,≤ -4.2
21,A12G U33A A64C G92A G124U,-4
22,U13G A47U G50A C51U U55A G81C A137U C149A,≤ -4.2
23,A12U A19U A37U U55A,-3.16
